# Experiments:
# Assay in all cases: Live cell staining assay on chimeric TF constructs (epitope binning)
# Assay type in all cases: cell-based
# [1] = target: T1, human, rat and chimeric human-rat TF constructs expressed on HEK293 cells (Homo sapiens, UniProt P13726); details: construct hTF
# T1 construct: expressed in transfected cells; host or cells: HEK293
# Description: (§1) To establish binding of the anti-human TF antibodies to the various TF constructs, HEK293 cells were transfected with a DNA plasmid that co-expresses the TF construct and a green fluorescent protein marker. […] Two days after transfection, cells were collected from the tissue culture plate, stained with 15 μg/ml of the indicated anti-TF antibody, washed, stained with anti-human IgG-Fc Alexa Fluor 647 polyclonal antibody, washed, and stained with the viability dye 4′,6-Diamidino-2-Phenylindole, Dihydrochloride. Upon acquisition of 80,000 live events on a flow cytometer, live cells marked with the fluorescent marker were analyzed for the degree of staining by the anti-TF antibody. […] As used herein, the term “live cell staining assay” refers to the antibody binding assay used in this example.
# (§2) When “Percentage antibody binding to TF construct relative to hTF” in Tables 51 and 52 was less than 50%, the antibody was considered a non-binder (0) in Tables 53 and 54.
# (§3) Each antibody was assigned to an epitope bin in Table 55 based on the combination of unbound constructs from Table 53.
# [2] = target: T2, human, rat and chimeric human-rat TF constructs expressed on HEK293 cells (Homo sapiens, UniProt P13726, A112W/A121G/E116T/E127T/E131K/E137D/G113R/G119T/G122E/L125P/L136R/N139K/P130R/S117H/S120H/S129A/T118G/T133L/V115S/Y110V/Y126F); details: construct h78-107_r (21), human segment replaced by rat segment
# T2 construct: expressed in transfected cells; host or cells: HEK293
# Description: as §1, §2, §3
# [3] = target: T3, human, rat and chimeric human-rat TF constructs expressed on HEK293 cells (Homo sapiens, UniProt P13726, A200N/K201T/N203H); details: construct h167-174_r (3), human segment replaced by rat segment
# T3 construct: expressed in transfected cells; host or cells: HEK293
# Description: as §1, §2, §3
# [4] = target: T4, human, rat and chimeric human-rat TF constructs expressed on HEK293 cells (Homo sapiens, UniProt P13726, D177Q/S174T); details: construct h140-145_r (2), human segment replaced by rat segment
# T4 construct: expressed in transfected cells; host or cells: HEK293
# Description: as §1, §2, §3
# [5] = target: T5, human, rat and chimeric human-rat TF constructs expressed on HEK293 cells (Homo sapiens, UniProt P13726, D212E/E215V/N216S/S220F/V221A); details: construct h175-189_r (5), human segment replaced by rat segment
# T5 construct: expressed in transfected cells; host or cells: HEK293
# Description: as §1, §2, §3
# [6] = target: T6, human, rat and chimeric human-rat TF constructs expressed on HEK293 cells (Homo sapiens, UniProt P13726, E127T/E131K/E137D/L136R/N139K/P130R/S129A/T133L/Y126F); details: construct h94-107_r (9), human segment replaced by rat segment
# T6 construct: expressed in transfected cells; host or cells: HEK293
# Description: as §1, §2, §3
# [7] = target: T7, human, rat and chimeric human-rat TF constructs expressed on HEK293 cells (Homo sapiens, UniProt P13726, I184G/T186I/W190R/Y188T); details: construct h152-158_r (4), human segment replaced by rat segment
# T7 construct: expressed in transfected cells; host or cells: HEK293
# Description: as §1, §2, §3
# [8] = target: T8, human, rat and chimeric human-rat TF constructs expressed on HEK293 cells (Homo sapiens, UniProt P13726, K181N)
# T8 construct: expressed in transfected cells; host or cells: HEK293
# Description: as §1, §2, §3
# [9] = target: T9, human, rat and chimeric human-rat TF constructs expressed on HEK293 cells (Homo sapiens, UniProt P13726, K197R/S192D/S195T); details: construct h159-166_r (3), human segment replaced by rat segment
# T9 construct: expressed in transfected cells; host or cells: HEK293
# Description: as §1, §2, §3
# [10] = target: T10, human, rat and chimeric human-rat TF constructs expressed on HEK293 cells (Homo sapiens, UniProt P13726, N203H/T229K); details: construct hTF_N171H_T197K
# T10 construct: expressed in transfected cells; host or cells: HEK293
# Description: as §1, §2, §3
# [11] = target: T11, human, rat and chimeric human-rat TF constructs expressed on HEK293 cells (Homo sapiens, UniProt P13726, S192D); details: construct h159-219_r (27), human segment replaced by rat segment
# T11 construct: expressed in transfected cells; host or cells: HEK293
# Description: as §1, §2, §3
# [12] = target: T12, human, rat and chimeric human-rat TF constructs expressed on HEK293 cells (Rattus norvegicus, UniProt P42533); details: construct rTF
# T12 construct: expressed in transfected cells; host or cells: HEK293
# Description: as §1, §2, §3
# [13] = target: T13, human, rat and chimeric human-rat TF constructs expressed on HEK293 cells (Rattus norvegicus, UniProt P42533, A222V/D193S/E213D/F221S/G171N/G185I/H204N/I187T/K169R/N182K/N201A/Q178D/R191W/R198K/S217N/T175S/T189Y/T196S/T202K/V216E); details: construct r141-194_h, rat amino acid segment replaced by human segment (20 amino acid changes)
# T13 construct: expressed in transfected cells; host or cells: HEK293
# Description: as §1, §2, §3
# [14] = system: human, rat and chimeric human-rat TF constructs expressed on HEK293 cells; details: for Antibody binding to TF construct: human segment replaced by rat segment
# Description: as §1, §2, §3
substance,measurement,setting,value
TF-011 [reference compound],Antibody binding to TF construct,[1]; Table 54,"1 (between 50% and 150%, the antibody was considered a binder (1))"
same,Antibody binding to TF construct,[1],"1 (between 50% and 150%, the antibody was considered a binder (1))"
same,Antibody binding to TF construct,[2],"0 (less than 50%, the antibody was considered a non-binder (0))"
same,Antibody binding to TF construct,[3],"1 (between 50% and 150%, the antibody was considered a binder (1))"
same,Antibody binding to TF construct,[4],"1 (between 50% and 150%, the antibody was considered a binder (1))"
same,Antibody binding to TF construct,[5],"1 (between 50% and 150%, the antibody was considered a binder (1))"
same,Antibody binding to TF construct,[6],"0 (less than 50%, the antibody was considered a non-binder (0))"
same,Antibody binding to TF construct,[7],"1 (between 50% and 150%, the antibody was considered a binder (1))"
same,Antibody binding to TF construct,"[8]; construct h146-151_r (1), human segment replaced by rat segment","1 (between 50% and 150%, the antibody was considered a binder (1))"
same,Antibody binding to TF construct,[8]; construct hTF_K149N,"1 (between 50% and 150%, the antibody was considered a binder (1))"
same,Antibody binding to TF construct,[9],"1 (between 50% and 150%, the antibody was considered a binder (1))"
same,Antibody binding to TF construct,[10],"1 (between 50% and 150%, the antibody was considered a binder (1))"
same,Antibody binding to TF construct,[11],"1 (between 50% and 150%, the antibody was considered a binder (1))"
same,Antibody binding to TF construct,[12]; Table 54,"0 (less than 50%, the antibody was considered a non-binder (0))"
same,Antibody binding to TF construct,[12],"0 (less than 50%, the antibody was considered a non-binder (0))"
same,Antibody binding to TF construct,[13],"0 (less than 50%, the antibody was considered a non-binder (0))"
same,Epitope Bin,[14]; assignment based on unbound chimeric constructs,1
same,Constructs not bound by antibody,[14]; chimeric human-rat TF constructs of Table 53,"rTF, h1-107_r, h1-77_r, h39-77_r, h78-107_r, h78-107_r.v2, h94-107_r"
same,Antibody binding to TF construct,[14]; construct h1-38_r (14),"1 (between 50% and 150%, the antibody was considered a binder (1))"
same,Antibody binding to TF construct,[14]; construct h1-77_r (25),"0 (less than 50%, the antibody was considered a non-binder (0))"
same,Antibody binding to TF construct,[14]; construct h1-107_r (52),"0 (less than 50%, the antibody was considered a non-binder (0))"
same,Antibody binding to TF construct,[14]; construct h78-93_r (18),"1 (between 50% and 150%, the antibody was considered a binder (1))"
same,Antibody binding to TF construct,[14]; construct h78-107_r.v2 (27),"0 (less than 50%, the antibody was considered a non-binder (0))"
